From patent US20150139990A1 (DAINIPPON SUMITOMO PHARMA, published 2015)

T1: human CD81 on CD81-expressing cells (Jurkat E6.1, human PBMC, Ramos) (human, UniProt P60033 1-236)
T1 construct: endogenous CD81 of the cells; also called wild type human CD81
T1 sequence: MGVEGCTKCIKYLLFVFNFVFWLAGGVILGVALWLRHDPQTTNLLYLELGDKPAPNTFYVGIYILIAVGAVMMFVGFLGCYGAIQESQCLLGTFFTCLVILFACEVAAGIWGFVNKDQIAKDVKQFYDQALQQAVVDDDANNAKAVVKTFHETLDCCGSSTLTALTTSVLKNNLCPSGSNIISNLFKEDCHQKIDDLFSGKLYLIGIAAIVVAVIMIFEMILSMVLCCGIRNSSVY

T2: human CD81 mutant N172A (human, UniProt P60033 1-236, limits assumed)
T2 construct: as m30; not shown: C-terminal V5 and 6xHis tags
T2 sequence: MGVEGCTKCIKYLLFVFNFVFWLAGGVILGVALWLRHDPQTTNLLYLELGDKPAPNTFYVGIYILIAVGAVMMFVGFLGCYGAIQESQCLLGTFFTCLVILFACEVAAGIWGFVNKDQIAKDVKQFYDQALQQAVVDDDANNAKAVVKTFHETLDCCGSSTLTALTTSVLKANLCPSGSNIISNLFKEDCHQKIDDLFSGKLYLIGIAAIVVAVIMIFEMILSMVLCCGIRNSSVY

T3: human CD81 mutant V169A (human, UniProt P60033 1-236, limits assumed)
T3 construct: as m30; not shown: C-terminal V5 and 6xHis tags
T3 sequence: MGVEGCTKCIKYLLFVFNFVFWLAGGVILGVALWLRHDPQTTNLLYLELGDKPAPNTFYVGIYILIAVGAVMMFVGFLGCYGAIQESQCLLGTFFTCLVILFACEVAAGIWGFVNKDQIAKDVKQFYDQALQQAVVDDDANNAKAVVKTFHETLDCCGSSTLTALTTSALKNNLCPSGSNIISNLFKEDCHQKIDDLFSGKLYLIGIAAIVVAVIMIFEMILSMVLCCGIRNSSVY

T4: human CD81 mutant A164T (human, UniProt P60033 1-236, limits assumed)
T4 construct: as m30; not shown: C-terminal V5 and 6xHis tags
T4 sequence: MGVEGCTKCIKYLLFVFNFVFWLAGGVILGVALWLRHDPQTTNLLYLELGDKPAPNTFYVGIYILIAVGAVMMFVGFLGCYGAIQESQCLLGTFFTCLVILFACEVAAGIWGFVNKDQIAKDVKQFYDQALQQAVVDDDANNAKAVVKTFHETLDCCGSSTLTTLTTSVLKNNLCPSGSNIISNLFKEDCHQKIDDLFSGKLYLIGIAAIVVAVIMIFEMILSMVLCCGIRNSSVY

T5: human CD81 mutant G158S (human, UniProt P60033 1-236, limits assumed)
T5 construct: as m30; not shown: C-terminal V5 and 6xHis tags
T5 sequence: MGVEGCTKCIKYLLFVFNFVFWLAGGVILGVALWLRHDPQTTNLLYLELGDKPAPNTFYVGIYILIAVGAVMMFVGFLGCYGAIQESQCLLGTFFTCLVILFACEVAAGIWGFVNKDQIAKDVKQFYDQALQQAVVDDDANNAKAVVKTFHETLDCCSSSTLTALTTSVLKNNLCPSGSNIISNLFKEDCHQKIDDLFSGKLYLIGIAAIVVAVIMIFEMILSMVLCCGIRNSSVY

T6: human CD81 mutant L165A (human, UniProt P60033 1-236, limits assumed)
T6 construct: as m30; not shown: C-terminal V5 and 6xHis tags
T6 sequence: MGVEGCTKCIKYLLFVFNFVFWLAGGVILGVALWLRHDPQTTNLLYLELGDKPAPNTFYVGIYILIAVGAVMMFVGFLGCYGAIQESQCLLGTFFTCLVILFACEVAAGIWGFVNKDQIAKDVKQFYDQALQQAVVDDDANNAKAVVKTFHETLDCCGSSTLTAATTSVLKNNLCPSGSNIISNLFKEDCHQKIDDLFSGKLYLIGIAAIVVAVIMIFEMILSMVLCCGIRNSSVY

T7: human CD81 mutant D137A (human, UniProt P60033 1-236, limits assumed)
T7 construct: as m30; not shown: C-terminal V5 and 6xHis tags
T7 sequence: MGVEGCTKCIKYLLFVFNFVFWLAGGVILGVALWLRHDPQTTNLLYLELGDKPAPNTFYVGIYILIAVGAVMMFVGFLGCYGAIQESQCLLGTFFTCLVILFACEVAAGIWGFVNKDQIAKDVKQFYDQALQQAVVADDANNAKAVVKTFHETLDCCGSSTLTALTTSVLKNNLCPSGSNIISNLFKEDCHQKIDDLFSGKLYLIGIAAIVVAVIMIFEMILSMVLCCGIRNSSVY

T8: human CD81 mutant V135A (human, UniProt P60033 1-236, limits assumed)
T8 construct: as m30; not shown: C-terminal V5 and 6xHis tags
T8 sequence: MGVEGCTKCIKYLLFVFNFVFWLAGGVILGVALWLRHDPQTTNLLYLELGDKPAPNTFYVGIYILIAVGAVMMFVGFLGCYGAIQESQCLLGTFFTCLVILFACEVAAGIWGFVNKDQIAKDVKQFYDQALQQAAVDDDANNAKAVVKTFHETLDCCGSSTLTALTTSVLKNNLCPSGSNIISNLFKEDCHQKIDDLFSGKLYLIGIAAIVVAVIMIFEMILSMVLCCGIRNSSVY

T9: human CD81 mutant H151R (human, UniProt P60033 1-236, limits assumed)
T9 construct: as m30; also called H151B; not shown: C-terminal V5 and 6xHis tags
T9 sequence: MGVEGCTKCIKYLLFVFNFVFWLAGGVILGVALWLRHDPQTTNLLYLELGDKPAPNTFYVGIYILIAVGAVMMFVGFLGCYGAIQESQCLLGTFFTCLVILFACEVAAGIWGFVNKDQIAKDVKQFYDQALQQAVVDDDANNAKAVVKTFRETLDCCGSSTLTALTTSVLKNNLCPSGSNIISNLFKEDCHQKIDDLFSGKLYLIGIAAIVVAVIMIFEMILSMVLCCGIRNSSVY

T10: human CD81 mutant V135L (human, UniProt P60033 1-236, limits assumed)
T10 construct: as m30; not shown: C-terminal V5 and 6xHis tags
T10 sequence: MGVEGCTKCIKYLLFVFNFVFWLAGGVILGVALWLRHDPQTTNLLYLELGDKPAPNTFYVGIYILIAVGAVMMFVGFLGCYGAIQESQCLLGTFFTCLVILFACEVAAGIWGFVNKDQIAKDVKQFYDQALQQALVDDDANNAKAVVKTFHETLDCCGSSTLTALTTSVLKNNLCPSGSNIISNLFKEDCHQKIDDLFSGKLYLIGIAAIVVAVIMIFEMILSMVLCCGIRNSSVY

T11: human CD81 mutant D137E (human, UniProt P60033 1-236, limits assumed)
T11 construct: as m30; not shown: C-terminal V5 and 6xHis tags
T11 sequence: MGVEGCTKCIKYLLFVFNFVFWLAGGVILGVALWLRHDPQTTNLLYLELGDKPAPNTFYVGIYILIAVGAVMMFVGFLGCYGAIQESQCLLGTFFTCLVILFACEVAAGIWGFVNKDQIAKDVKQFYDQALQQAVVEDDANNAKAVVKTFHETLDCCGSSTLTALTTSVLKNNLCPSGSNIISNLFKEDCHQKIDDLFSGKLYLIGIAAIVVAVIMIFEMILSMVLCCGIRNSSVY

T12: human CD81 mutant A164V (human, UniProt P60033 1-236, limits assumed)
T12 construct: as m30; not shown: C-terminal V5 and 6xHis tags
T12 sequence: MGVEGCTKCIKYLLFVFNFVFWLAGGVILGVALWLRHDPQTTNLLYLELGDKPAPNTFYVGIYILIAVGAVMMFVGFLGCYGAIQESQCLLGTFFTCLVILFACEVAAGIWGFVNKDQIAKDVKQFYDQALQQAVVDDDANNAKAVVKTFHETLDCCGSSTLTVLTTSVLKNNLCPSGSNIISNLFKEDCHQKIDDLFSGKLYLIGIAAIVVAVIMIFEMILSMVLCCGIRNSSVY

T13: human CD81 mutant V169L (human, UniProt P60033 1-236, limits assumed)
T13 construct: as m30; not shown: C-terminal V5 and 6xHis tags
T13 sequence: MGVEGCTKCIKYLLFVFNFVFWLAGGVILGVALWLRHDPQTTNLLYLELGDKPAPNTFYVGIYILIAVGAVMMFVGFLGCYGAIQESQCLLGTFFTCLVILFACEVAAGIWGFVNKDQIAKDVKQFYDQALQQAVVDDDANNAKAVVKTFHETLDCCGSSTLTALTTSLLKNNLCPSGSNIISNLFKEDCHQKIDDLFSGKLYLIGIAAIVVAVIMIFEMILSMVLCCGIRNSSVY


How the values were obtained:
[1] = biological target: T1, human CD81 on CD81-expressing cells …; experiment: FMAT on CD81-expressing and non-expressing cells
From the text: A complete human antibody library n-CoDeR (Nature Biotechnol. 18: 852-856, 2000; WO98/32845) was screened for specific binding with human CD81, using human CD81 protein and human CD9 protein having a homology with CD81, or human CD81-expressing and -non-expressing cells to obtain human antibody fragments (scFv) specifically binding with human CD81. First, phages bound to biotinylated CD81 protein in the presence of competitive CD9 protein were recovered using streptoavidin-labeled magnetic beads. Unbound phages were washed out and the bound phages were eluted by trypsin treatment. Panning was carried out three times, and the selected phage library was expressed as an antibody fragment in E. coli. […] FMAT is performed by adding antibody fragments to the cells immobilized on the wells of 384-well culture plate, and detecting its binding using a fluorescent-labeled anti-scFv antibody. As a result of the screening, two human CD81-specific human antibody fragments were selected. The nucleotide sequences (scFv-002-A07: SEQ ID NO:33, scFv-005-001: SEQ ID NO:35) and the deduced amino acid sequences (scFv-002-A07: SEQ ID NO:34, scFv-005-001: SEQ ID NO:36) of these fragments were determined by sequencing.

[2] = biological target: T2, human CD81 mutant N172A; experiment: ELISA
[3] = biological target: T3, human CD81 mutant V169A; experiment: ELISA
[4] = biological target: T1, human CD81 on CD81-expressing cells …; experiment: cell-based or functional assay
[5] = biological target: T4, human CD81 mutant A164T; experiment: ELISA
[6] = biological target: T5, human CD81 mutant G158S; experiment: ELISA
[7] = biological target: T6, human CD81 mutant L165A; experiment: ELISA
[8] = biological target: T7, human CD81 mutant D137A; experiment: ELISA
[9] = biological target: T8, human CD81 mutant V135A; experiment: ELISA
[10] = biological target: T9, human CD81 mutant H151R; experiment: ELISA
[11] = biological target: T10, human CD81 mutant V135L; experiment: ELISA
[12] = biological target: T11, human CD81 mutant D137E; experiment: ELISA
[13] = biological target: T12, human CD81 mutant A164V; experiment: ELISA
[14] = biological target: T13, human CD81 mutant V169L; experiment: ELISA

Row | binding result [1] | relative binding affinity [2] [%] | relative binding affinity [3] [%] | Jurkat chemotaxis (% of control IgG4) at 0.001 µg/mL [4] [%] | Jurkat chemotaxis (% of control IgG4) at 0.01 µg/mL [4] [%] | Jurkat chemotaxis (% of control IgG4) at 0.1 µg/mL [4] [%] | Jurkat chemotaxis (% of control IgG4) at 1 µg/mL [4] [%] | Jurkat chemotaxis (% of control IgG4) at 10 µg/mL [4] [%] | relative binding affinity [5] [%] | relative binding affinity [6] [%] | relative binding affinity [7] [%] | relative binding affinity [8] [%] | relative binding affinity [9] [%] | relative binding affinity [10] [%] | relative binding affinity [11] [%] | relative binding affinity [12] [%] | relative binding affinity [13] [%] | relative binding affinity [14] [%] | Binder
1 | binds | – | – | – | – | – | – | – | – | – | – | – | – | – | – | – | – | – | scFv-002-A07 (scFv, antibody fragment from the n-CoDeR library, expressed in E. coli) scFv: EVQLLESGGGLVQPGGSLRLSCAASGFTFSSNYMSWVRQAPGKGLEWVSYISSSSTYTDYADSVKGRFTISRDNSKNTLYLQMNSLRAEDTAVYYCARYSYGRDNFDYWGQGTLVTVSSGGGGSGGGGSGGGGSQSVLTQPPSASGTPGQRVTISCTGSTSNIGAGYDTHWYQQLPGTAPKLLIYGNSNRPSGVPDRFSGSKSGTSASLAISGLRSEDEADYYCQSYDTNLSVWVFGGGTKLTVLGEQKLISEEDLSGSAAAHHHHHH
2 | – | < 20 | < 20 | 104 | 93 | 15 | 3 | 3 | – | – | – | – | – | – | – | – | – | – | 003-A10 (antibody, human IgG4 S228P, lambda, V domains shown, IgG4 S228P) VH: EVQLLESGGGLVQPGGSLRLSCAASGFTFSSNYMSWVRQAPGKGLEWVSYISSSSTYTDYADSVKGRFTISRDNSKNTLYLQMNSLRAEDTAVYYCARYSYGRDTFDYWGQGTLVTVSS VL: QSVLTQPFSASGTPGQRVTISCTGSTSNIGAGYDTHWYQQLPGTAPKLLIYGNSNRPSGVPDRFSGSKSGTSASLAISGLRSEDEADYYCQSYDTNLSVWVFGGGTKLTVLG
3 | – | – | < 20 | 80 | 79 | 21 | -3 | -4 | < 20 | < 20 | < 20 | < 20 | < 20 | < 20 | < 20 | < 20 | < 20 | < 20 | 003-F08 (antibody, human IgG4 S228P, lambda, V domains shown, IgG4 S228P) VH: EVQLLESGGGLVQPGGSLRLSCAASGFTFSSNYMSWVRQAPGKGPEWVSYISSSSTYADYADSVKGRFTISRDNSKNTLYLQMNSLRAEDTAVYYCARYSYGRDNFDYWGQGTLVTVSS VL: QSVLTQPSSASGTPGQRVTISCTGSTSNIGAGYDTHWYQQLPGTAPKLLIYGNSNRPSGVPDRFSGSKSGTSASLAISGLRSEDEADYYCQSYDTNLSAWVFGGGTKLTVLG
